In assay [1] the target is T1, human B7H3 on A498 cells (human, UniProt Q5ZPR3 29-534).
T1 construct: Endogenous B7H3 of A498 human kidney carcinoma cells; also called B7H3 positive A498 cells; human B7H3+ A498 cells
T1 sequence: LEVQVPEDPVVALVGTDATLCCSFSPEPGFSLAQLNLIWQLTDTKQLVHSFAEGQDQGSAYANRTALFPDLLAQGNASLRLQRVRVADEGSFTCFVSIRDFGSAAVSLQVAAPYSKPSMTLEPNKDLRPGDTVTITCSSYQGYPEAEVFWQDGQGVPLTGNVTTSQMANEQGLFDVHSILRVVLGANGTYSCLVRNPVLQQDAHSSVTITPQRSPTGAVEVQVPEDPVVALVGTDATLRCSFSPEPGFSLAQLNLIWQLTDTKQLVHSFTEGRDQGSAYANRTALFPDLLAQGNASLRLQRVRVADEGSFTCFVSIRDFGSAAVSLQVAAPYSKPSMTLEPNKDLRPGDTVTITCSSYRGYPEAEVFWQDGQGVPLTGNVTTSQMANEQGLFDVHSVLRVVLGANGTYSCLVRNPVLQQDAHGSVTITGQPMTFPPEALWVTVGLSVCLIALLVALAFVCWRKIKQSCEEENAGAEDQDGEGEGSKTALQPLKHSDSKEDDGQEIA
Description: flow cytometry, whole cell binding to B7H3+ A498 cells, MFI; fit value printed for the flat curve of the negative control. (Flow cytometry measures light scatter and fluorescence of single cells or particles in a stream.)

The target in another assay is cynomolgus B7H3 (cynomolgus). Description: ELISA on cynomolgus B7H3, OD450.
The target of assay [2] is T1, human B7H3 on A498 cells. Description: flow cytometry, whole cell binding to B7H3+ A498 cells, MFI (FITC).
Assay [3] addresses T1, human B7H3 on A498 cells. The assay can be described thus: flow cytometry, whole cell binding to B7H3+ A498 cells, MFI.
Assay [4] has as its target T1, human B7H3 on A498 cells. The assay can be described thus: flow cytometry, whole cell binding to B7H3+ A498 cells, MFI (FITC). This is another data set of the same source.
Assay [5] concerns the target T2, recombinant human B7H3 extra cellular domain (ECD) protein (human, UniProt Q5ZPR3 29-461).
T2 construct: also called h-B7H3 ECD; h-B7H3; not shown: C-terminal poly-histidine tag or Fc tag
T2 sequence: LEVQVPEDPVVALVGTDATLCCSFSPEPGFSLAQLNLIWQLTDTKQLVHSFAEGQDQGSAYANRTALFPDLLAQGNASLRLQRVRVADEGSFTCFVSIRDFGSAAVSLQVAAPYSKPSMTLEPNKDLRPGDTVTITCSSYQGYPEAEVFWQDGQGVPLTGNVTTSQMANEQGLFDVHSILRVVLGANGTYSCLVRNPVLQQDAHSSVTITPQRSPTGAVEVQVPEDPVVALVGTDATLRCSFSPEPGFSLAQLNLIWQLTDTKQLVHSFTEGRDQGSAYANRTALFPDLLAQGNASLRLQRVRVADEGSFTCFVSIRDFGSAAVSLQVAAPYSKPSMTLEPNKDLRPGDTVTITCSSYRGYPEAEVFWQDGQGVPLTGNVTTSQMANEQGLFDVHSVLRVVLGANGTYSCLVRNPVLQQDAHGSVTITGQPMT
Description: ELISA on human B7H3 (h-B7H3 ECD coated plates), OD450.

We go through six molecules from patent US20250243278A1 (SHANGHAI HENLIUS BIOTECH, published 2025).

By EC50 is commonly meant the concentration giving half of the maximal effect. A higher EC50 goes with a less potent agent. One may read the EC50 (read off the curve) as the midpoint of the concentration-response curve.

B1: Reference Ab 4 (antibody, V domains shown)
VH: QVQLQQPGAELVKPGASVKLSCKASGYSFTSYWMHWVKQRPGQGLEWIGMIHPNSGSNNYNEKFKSKATLTVDKSSNTAYMQLSSLTSEDSAVYYCARRLGLHFDYWGQGTTLTVSS
VL: DIVMTQSQKFMSTPVGDRVSITCKASQNVGTAVAWYQQKPGQSPKLLIYSASNRYTGVPDRFTGSGSGTDFTLTISNMQSEDLADYFCQQYSSYPYTFGGGTKLEIK
With B1, the EC50 in the assay with human B7H3 on A498 cells [1] was determined as 40.3 nM.

B2: 14C4 VHH (VHH)
VHH: QVQLVESGGGVVQAGGSLRLSCAASGRTFSSYGMGWFRQAPRKARGFVGAVTSAGSTWYEDSVKGRFTISRDNAKNTVYLQMNSLKPEDTAVYYCAATTIATMPWLMVSSRYAYWGQGTQVTVSS
notes: VHH secreted into SS320 supernatant, as screened by ELISA
On to B2, for which the “EC50 (read off the curve)” value in the assay with cynomolgus B7H3 was roughly 0.06 µg/mL.

B3: Reference Ab 2 (an h1702 analog) (antibody, V domains shown)
VH: QVQLQQPGAELVKPGASVKLSCKASGYTFTSYWMHWVKQRPGQGLEWIGMIHPDSGTTNYNEKFRSKATLTVDKSSSTAYMQLSSLTSEDSAVYYCAVYYGSTYWYFDVWGTGTTVTVSS
VL: DVVMTQTPLSLPVSLGDQAYISCRSSQSLVHINGNTYLHWYRQKPGQSPKLLIYKVSNRFSGVPDRFSGSGSGTDFTLKISRVEAEDLGVYFCSQSTHFPFTFGSGTKLEIK
B3: in the assay with human B7H3 on A498 cells [2], the concentration giving a half-maximal response (EC50) is 0.85 nM.

B4: 19c10-V2 (Fc fusion)
chain: EVQLVESGGGLVQPGGSLRLSCAASGSTFSKYAMGWFRQAPRKARGFVGAVTSAGSTWYADSVKGRFTISRDNSKNTLYLQMNSLRAEDTAVYYCAATTIATMPWLMVSSRYAYWGQGTLVTVSS
notes: Humanized FR1, FR3 and FR4; also called humanized 19c10 clone; not shown: purified by protein A and detected with anti-human IgG, so probably a human Fc
B4: the EC50 with human B7H3 on A498 cells [3] was 0.537 nM.

B5: 19c10-V3 (Fc fusion, not shown: a dimerising Fc or GST)
chain: EVQLVESGGGLVQPGGSLRLSCAASGSTFSKYAMGWFRQAPGKARGFVGAVTSAGSTWYADSVKGRFTISRDNSKNTLYLQMNSLRAEDTAVYYCAATTIATMPWLMVSSRYAYWGQGTLVTVSS
notes: FR2 humanized further from 19c10-V2; detected with anti-human IgG; also called humanized 19c10 clone
B5: the EC50 in the assay with human B7H3 on A498 cells [4] came out at 5.52 nM; with human B7H3 on A498 cells [3], 1.69 nM.

B6: 5H8 VHH (VHH)
VHH: QVKLEESGGGQVQAGDSRTLSCVASGRTFSSDSMAWFREAPGKARGFVAVVSRSAGSTWYEDSVKGRFTISRDNAKNTVYLQMNSLKPEDTAVYYCAATDIATMPWLMVSSRYDYWGQGTQVTVSS
notes: VHH secreted into SS320 supernatant from phagemid pADL-23c, as screened by ELISA
Consider B6, for which the “EC50 (read off the curve)” value in assay [5] was roughly 0.08 µg/mL.
